Data on seven molecules can be found in patent US10801046B2, “Methods and materials for biosynthesizing multifunctional, multivariate molecules via carbon chain modification” (INVISTA NORTH AMERICA S.A.R.L., priority 2016, dated 2020).

B1: SEQ ID NO: 198: Pestalotiopsis fici W106-1 carboxylate reductase (protein)
chain: MESYIEKARRYAQPPPPGAPQGVAVPNSKLPGRSAVYRHWRRGDELPDYFDPDLSSGYDMFEQTAKRQPDARCLGYRPYNGSTKSFGPYIWYSYDNVLKRSTDFGKGLAELLEANGVGGRQRPVGLWCANRPEWQFVDLGAMSQSLYSISLYETLGPAATEFLINHAEIPVVCASLEHIPALILAAPRCPSLKLIISLDPLTEEIDAPGTSRKELLSSLAAEKGLQVHDFRDVEKAGQASSRSLNRPRPDDIFTINYTSGTTGNPKGVVLRHSNAVAATVTCLTVYPMRSSDVLCSYLPLAHIYERFVEISAMYGGGSIGYFHGNPLELIDDLKLLRPTIFTSVPRLLNRMGSSIKAATIEQQGVKGALSRYIMETKMANIENDDPAKATNKHMVYDRIWGRKITAALGLDRTVHMMSGSAPLDGGLQQFLRIVFATEIVQGYGSTEMFAICLAQSAGDMSVRNCGGPAACVEVCLLDLPDMGYFSSDQPCPRGELLMRGPNVFSEYYKDDEETSKAFTEDGWFKTGDICAVDELGRFSIIDRRKNLLKLAQGEYISPEHIENVLLAQRPWLAQGYVHGDSAEAHLVGIFGVQPDIFCNFLNRTLGKECKPEDTDQLEAVLQEPEVRSAVVKELAMVGKSAKLNSYEIPRAVRLMIEPFTVENGLLTPTLKLKRPQTAKKFDHLIKEMYAETRKTSTLMAKL
modifications: Pestalotiopsis fici W106-1
notes: Pestalotiopsis fici W106-1 carboxylate reductase
B2: SEQ ID NO: 197: Cyberlindnera jadinii carboxylate reductase (protein, listed as Cyberlindnera jadinii)
chain: MNFNQPVNPQPVPGSRVEGYSEIFTNDPPVVLDPSMDTLSKMWNNAVANFANFDCMGVRKFHNTRKQQLDTFFTYDSYAEVDRKKHNISCGIIHLVTHHPKYRELLSIAGKPEFVVGILSPNRYEWMLVDLATRDFSLTNTALYPTLGQQSSQYILSVTESPIIFLTKDQIPKILEIKPELPLLNILVSLDDFDHDDHDLFVRAQSLGVSLVDFRAVEKIGERHPLPKDFNPPTTDTIYTISFTSGTTGNPKGVLIPHEMAACGIISCTMGLESPFELPKGAKRRQFGENVDQHGVQVTALCHLPLAHIYEREISNYALMSGFRLGFPSSTNPAMFFDDLKSIKPHYLASVPRVYNKLDALLKAKVKRGTPPHVVRKTFGLDHCRYLVSGSAPLGVETIKYLKQTLDIGFSVCYGSTETFAGFFFGDAFEDVITNSCGHPSASVQIRLRDVPEMGYHTNETPMRGELMVKGPQVFSEYFKNPKATADSFDKDGWFHTGDIVSMDSERRVYIIDRVKNFFKLQQGEFVTPERIENIYLAHSPLLTQLFVHGDSLQNFLVGVAGISLEYVQEMFKQDFGVAISQDEVLGLLQDPKYKAMLIKQLNHHVSGADLQGFEKIHNIHVDLEPLRLEDEVLTPTMKIKRENAKKKFAPILEKLYTEGSLVVKQKL
B3: SEQ ID NO: 206: Phytophthora sojae (strain P6497) carboxylate reductase (protein)
chain: MGAGSSSELPMSQIDFDSYTGKRYTVEVPNTRDATHGPAYEVADKEPVNEDEMTLYHNFLRGCSIEHGTRPLYGRRTVDADTGKAGAFEWLTYNEVKTRVERVASGLKAVGALERQDVVGVFSKNQLEWCLVAHACDRMSYVLVPLYDTLGPDAVPFIVNHTELRVLFCGKKQFDVVMDCVKDCPTLKTIVQFEPVTEQQIQQAAAKNLELRSLEELELLGEADPKRADPPKPTDVSTLCYTSGTTGDPKGVILLQRNYAYVVRQMCKRMQIFPSDVHCSYLPLAHVFERSVLGVLQAHGASAGFYQGDLLTLMDDLVELKPTVFVSVPRLFNRVYDKITQGVAAAGGLKKILFDRALAAKLAGLPEGHKTHALWDALVFSKVRLALGGRVRLIFSGSAPLSAEVKEFMKVVFCCDVAEGYGLSETAAAVTVGSVDMPMGPHVGCPLIYGQVQLEDVPEMGYTSRDKPRPRGEILVKGPMIFSGYYKEPEKTREAIDERGWFHTGDIGCWNADGTLSIIDRKKNIFKLAQGEYVAAEKIENIYAKSKYVAQIFAYGDSLQSCLVGIVVPDPETAEAWAQEKGLTGADASAAKVATNPEFQKAVLADMARVAKEAQLRGFEFVKSVHFHPEPFSLEQGLITPTFKLKRPQLKAHFQQQINMLYEGLK
modifications: Phytophthora sojae (strain P6497)
notes: Phytophthora sojae (strain P6497) carboxylate reductase
B4: SEQ ID NO: 196: Chromera velia CCMP2878 carboxylate reductase (protein)
chain: MGAQCSAKNSLTYSIPYGEPQAEDESALYANPYMPELAGCDGLKSCWENFEVAVSSTGDKPAVGTREKQADGTLGKYVWKSWKEVAETVANLHAGLQSLDAFPLQSFPEESVQQTFKFLGVTGKNREEYLETMLAAYRAGVCLVPLYDTLGENTYEYCINQTGLKTVIVGDLKIASKLLHVAKKCECFKIIVCMDAVSDELKQEANASGVTIHSFEEVCEIGKQKPVDPTPAQSDMEINTICYTSGTTGNPKGVLVTHRALLTALSTSDELFKKEGFKIDFNDTHISYLPYAHVMERAVTEICVRRGMRIAFYSGDTTKIVDDIQLARPTVFFSVPRLYTRIYDRILSQAAAAGGIKKSLFDRALESKLTELRSTGNFTHKLWDAIVFSKIKDVLGGRVRFLVTGSAPMAKEVQEVLKVCFCCPMMEAFGMTETACCGTATAALDPTTGHVGGVVPGILLKVKGIPEMGYSPNDRGENGELMPRGELMVKGAAVFPGYFKEPEKTKEALDADGWLRTGDVCVINPNGSFKIIDRAKNIFKLAQGEYVAPEKIENIYIQCESVAQAFVTGYGTEKVLVCVVVPDEGYAKNWAKEKGLEGDAASLSALCATHGDLEAEVFKQIDAIGKARGLSGIEKAKAVRLYAEPFSVENDLLTATFKLKRHQANKTFKAQIDEMYAELNAKEKARGGS
modifications: Chromera velia CCMP2878
notes: Chromera velia CCMP2878 carboxylate reductase
B5: SEQ ID NO: 199: Caenorhabditis elegans carboxylate reductase (protein)
chain: MVDESDVKSALNGHDRPFTITLAIVLLKIVFFIYDVVTFIPFKIFADPAEKLEKSERVKAEPDNGDPTTPWKNVSAKDGLMNSSFEGIHDLGTQWEECVRRYGNQPCMGTREVLKVHKEKQSNGKIFEKWQMGDYHWRSYAQVDKRVNMIASGLTSLGQQEKEPIILFAETREEWMTTALACMKMNFPIATMYATLGDEAVQFAINEVGAKTIFTSEALISKVKKAMSNGATSIENIIFFDSVDPASRGESVDVDLPFTLLSFDQLLSRGEPYPVPTRSKKDDLAFIMYTSGTTGNPKGVMISHQNIVAVTAGQAFNIVLGPDDRYIGYLPLAHILEVCAEMVVFTKGVRIGYSSAQTLFDRAPKIMKGEHGDCWVLQPTLMACVPAVMDRIFKAVIDEVNANSELFKQLFKTCYERKRSRYEEGYTSFILNKLVFNRIGKLLGGKVRQILSGGAPLSPETQRFMNICFCCPVVQGYGLTETCGGGTIADIHDLSTGTVGPPLTCCEILLQEWAEAGYSPKNDPPQGEILISGPNVALGYFKNDEKTKEEFVKVNGKTFFATGDIGEFREDGSLKIIDRKKDLLKLAHGEYISLGKVETNLLTNPNVDNVCVYGDSNKSFLVALVVPNQKNLTQLASKAGASNDNFEKLCEDKKVVEALQKELAQYGASKLQRVEIPQKIFICHEPWTPASGLLTEALKLKRKNIEKAFRKELDELYK
modifications: Caenorhabditis elegans
notes: Caenorhabditis elegans carboxylate reductase
B6: SEQ ID NO: 200: Tetrahymena thermophila (strain SB210) carboxylate reductase (protein)
chain: MGANQSSRIYNVPIDEKKDGYSQIMRHPKYIDKLEYKPIPEIDNVQDLVLHGYSNSKEMNFFGKKNPVSNEFEYMTYDQVIEQAKQLGSAVKNLQFLKESSEQSNQKMELIGIYSKNRIEWGIADIANSLYGYTMVPLYDSLGPDSISYVLANSEITTCYCSAASVLTLSKTKDLHHLKNIISFDHVSEDLIELVKQRGIVVHLFKDIVEKGSLNVLPLPKLTRDTIFTFCYTSGTTGNPKSAMISHKNILASVTNYDKSDCFLTQDDVHLSYLPLPHIYERFINVYCWFKGTKIAFYSGDVHKIQEDIIASKPTCFSAVPRLLNRFYDAINSKLNQATGFQKILIQHALQTKLENIQKNGVYTHILYDKIIFNKIREQFGGRIRQLVCGSAPTSPKVFDFFKAVLSCSVIEGFGQTELSGVVTIQVKADPKMGNVGGIGPSSELKLEDVPEMEYLSTDKDELGNPKPRGEICVRGYNVFSGYYKDEEKTKEAIDQEGWFHTGDIGEIIPNGGLKIIDRKKNLFKLSQAEYVSPEKVENIYVRARGVQEVYIHGESLYNYCIGIIVPSQEELLKIAAELNISETDIASLCKNQQIISWYIKTIHNLGKHEGLFSFEQPKKIYLEPKSFLVIGCVTNSFKLQRHHAKNYFKNIIQELYNNNNNQ
modifications: Tetrahymena thermophila (strain SB210)
notes: Tetrahymena thermophila (strain SB210) carboxylate reductase
B7: SEQ ID NO: 201: Auxenochlorella protothecoides carboxylate reductase (protein)
chain: MSTFPPLDAQCVVLPEKLNAPGPWTVRRNANFPEALIDSFDGEESHVRTCYDLLEHSVVKYPDSPYLGTRSVDARGAPGPYAWLSYSQVGEARTQIGSGLAHLGVRPGSNVGLFSTNCADWVLVDAALHAYACVSVPLYDTLGADVVQFVNNHAELAAVACSAATLPALLETLPASPTVAVVVVYAAPAGFRMPATPPGSAARLVSLDRLRALGMKHPSPHVPPSPADTALINYTSGTTGMPKGVVLTHANIVASIAGQIRSTAVLATIDATERHISYLPLAHIFERVTYMSVTHRGGAIGFFRGDVLTLLEDIQALRPTYFPSVPRLWNRIYDRIMAQVAASSPVKRRLFETAYAYKKRHMAAGDMTGGPWAGFWNRLVFNKIKQAVGGEVRMMVSGASALSPEVFEFMRIVFDCVVIEGYGMTETTSGATISIPGDPVIGHVGIPTPACEVKLADVPEMGYTNADLPRPRGEICVRGPLRFKEYYKDPENTRETIDEEGWLHTGDIGTWLPGERLKIIDRKKNIFKLSQGEYVAPEKIENIYVRSPYVAQVFVHGDSLRSCIVGVVVPDPEVLLPWAKQRGLPQDLATLCEDEQVKAMIQKSLSEEARVAKLKGFEQVADIVLTPVPFSVETGTMTPTFKLKRPQLREAYAPALEAMYARLPM
modifications: Auxenochlorella protothecoides
notes: Auxenochlorella protothecoides carboxylate reductase

The nature of this experiment: In vivo carboxylate reductase screening, substrate consumption by LC-MS, heptanedioate. Format: cell-based, Escherichia coli. The note with it: 541 enzymes screened in vivo. The procedure:
To screen carboxylate reductases in vivo, […] T7- pUC expression vectors was co-transformed into T7 Express lysY/Iq with the phosphopantetheinyl transferase sfp from Bacillus subtilis on a T7-pCDF expression vector. Biological duplicates of the resulting strains were incubated in 0.5 mL of terrific broth containing either 1 g/L heptanedioate or 1 g/L monomethyl heptanedioate and supplemented with 0.4 mM IPTG in 96-well deep well plates. The plates were incubated for 30 h at 30° C. in a shaking incubator. The cells were then pelleted, and culture supernatants from the same strains in media containing either heptanedioate or monomethyl heptanedioate were combined. The combined supernatants were analyzed by LC-MS to determine the concentration of heptanedioate and monomethyl heptanedioate. Carboxylate reductase activity on heptanedioate or monomethyl heptanedioate was reflected by consumption of the respective substrate in the medium.
As for B1, the “substrate preference, heptanedioic acid to 7-oxoheptanoate” value (“substrate preference, heptanedioic acid” for short) is given as “preferred acting upon heptanedioic acid to form 7-oxoheptanoate”.
Next, B2: “preferred acting upon heptanedioic acid to form 7-oxoheptanoate”.
Regarding B3, the “substrate preference, heptanedioic acid” value was “preferred acting upon heptanedioic acid to form 7-oxoheptanoate”.
Regarding B4, the “substrate preference, heptanedioic acid” value is “preferred acting upon heptanedioic acid to form 7-oxoheptanoate”.
For B5, the “substrate preference, heptanedioic acid” value is on record as “preferred acting upon heptanedioic acid to form 7-oxoheptanoate”.
For B6 the value was “preferred acting upon heptanedioic acid to form 7-oxoheptanoate”; for B7, “preferred acting upon heptanedioic acid to form 7-oxoheptanoate”.
